In patent US6887705B1, “Tyrosine phosphorylated cleavage furrow-associated proteins (PSTPIPs)” (Genentech, Inc., priority 1997, dated 2005):

T1: full-length PTP HSCF with an N-terminal hemagglutinin epitope tag (UniProt Q61152 1-453)
T1 construct: range 1-453; In vitro translated or expressed in COS cells; also called the phosphatase; wild type PTP HSCF
T1 sequence (looked up): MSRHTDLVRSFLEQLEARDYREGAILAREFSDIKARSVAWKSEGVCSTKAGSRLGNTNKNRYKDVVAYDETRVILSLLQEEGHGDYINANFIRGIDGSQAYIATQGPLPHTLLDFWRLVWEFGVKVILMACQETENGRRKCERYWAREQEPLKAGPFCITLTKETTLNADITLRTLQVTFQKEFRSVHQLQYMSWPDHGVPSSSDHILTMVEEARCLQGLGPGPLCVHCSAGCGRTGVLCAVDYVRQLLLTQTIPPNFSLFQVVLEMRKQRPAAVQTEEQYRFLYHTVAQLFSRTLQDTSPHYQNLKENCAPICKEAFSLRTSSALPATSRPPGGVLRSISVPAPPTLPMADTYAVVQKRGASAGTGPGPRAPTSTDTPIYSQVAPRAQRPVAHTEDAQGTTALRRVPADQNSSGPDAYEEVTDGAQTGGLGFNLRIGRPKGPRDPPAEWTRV


How the values were obtained:
3T3 cells = assay: Overexpression of PSTPIP in transfected 3T3 cells, confocal microscopy; format: cell-based, murine; settings: overexpression under cytomegalovirus promoter
Protocol: Rabbit polyclonal antibodies were produced against a GST-PSTPIP fusion protein. The complete PSTPIP-GST fusion protein was purified on GSH-sepharose and injected intramuscularly at 2 sites with 200 μg fusion protein and subcutaneously at multiple sites with a total of 300 μg PSTPIP-GST fusion protein in Complete Freunds Adjuvant. Rabbits were boosted every 3 weeks with 100 μg fusion protein in Incomplete Freunds. 15 ml of rabbit sera was reacted with 0.5 mg PSTPIP-GST-GSH-Sepharose for 3 hours at 4° C. with gentle rotation. The resin was collected by centrifugation and washed with 10 column volumes of PBS. Immunoglobulin was eluted from the affinity matrix with 100 mM acetic acid, 500 mM NaCl, neutralized with NaOH, and then dialyzed overnight with PBS. NIH 3T3 cells were seeded at 100,000 cells per chamber slide and allowed to adhere overnight. The cells were transfected using Lipofectamine™ (2 ug pRK.PIP.FLAG.C/12 ul Lipofectamine in 0.8 ml OPTI-MEM) for 5 hours. The DNA/Lipofectamine™ solution was removed and fresh serum containing medium added. […] Cells were stained with 0.4 μg/ml rabbit anti-PIP or 0.4 μg/ml rabbit IgG and detected with Cy3-corjugated goat anti-rabbit. […]

[1] = biological target: T1, full-length PTP HSCF with an N-terminal …; assay: co-immunoprecipitation from co-transfected COS cells
From the text: The resultant precipitates were resolved on SDS polyacrylamide gels and probed with anti-FLAG antibody (to detect PST PIP), anti-HA antibody (to detect PTP HSCF) and anti-pY (anti-phosphotyrosine antibody) to detect this modified residue on these proteins. Note that the $W232A$ mutant of PST PIP is neither coprecipitated with PTP HSCF nor is it "substrate trapped" (as determined by hyperphosphorylation) by the dominant negative (C-S) form of PTP HSCF, while the wild type form of the protein (PST PIP wt) is found in a complex with precipitated PTP HSCF and is hyperphosphorylated ("substrate trapped" (Jia et al., *Science* 268(5218):1754–1758 (1995); Garton et al., *Mol. Cell. Biol.* 16(11):6408–6418 (1996); Flint et al., *Proc. Natl. Acad. Sci. USA* 94(5):1680–1685 (1997); Spencer et al. (1997), supra)) by dominant negative (C-S) PTP HSCF.
In vitro binding analyses between various PTP HSCF and PST PIP constructs were performed as previously described (Spencer et al, (1997), supra). Briefly, plasmids were transcribed and translated in vitro using the TnT Rabbit Reticulocyte Lysate System (Promega). […] Samples were than reacted with GST fusion proteins at various concentrations, and the bound proteins were centrifuged using glutathione-sepharose beads and analyzed on SDS polyacrylamide gels. […]

binding result [1] | Molecule | cell morphology on overexpression (3T3 cells)
– | PSTPIP: murine PST Phosphatase Interacting Protein, 415 residues (SEQ ID NO:1) (protein, Mus Musculus) MMAQLQFRDAFWCRDFTAHTGYEVLLQRLLDGRKMCKDVEELLRQRAQAEERYGKELVQIARKAGGQTEMNSLRTSFDSLKQQTENVGSAHIQLALALREELRSLEEFRERQKEQRKKYEAIMDRVQKSKLSLYKKTMESKKAYDQKCRDADDAEQAFERVSANGHQKQVEKSQNKAKQCKESATEAERVYRQNIEQLERARTEWEQEHRTTCEAFQLQEFDRLTILRNALWVHCNQLSMQCVKDDELYEEVRLTLEGCDVEGDINGFIQSKSTGREPPAPVPYQNYYDREVTPLIGSPSIQPSCGVIKRFSGLLHGSPKTTPSAPAASTETLTPTPERNELVYASIEVQATQGNLNSSAQDYRALYDYTAQNSDELDISAGDILAVILEGEDGWWTVERNGQRGFVPGSYLEKL | induced a remarkable morphological change in a high percentage of cells
no binding | W232A mutant of PST PIP, C-terminal FLAG (other, In vitro translated or expressed in COS cells; also called W232A PST PIP; PST PIP with an alanine replacement mutation at tryptophan232) MMAQLQFRDAFWCRDFTAHTGYEVLLQRLLDGRKMCKDVEELLRQRAQAEERYGKELVQIARKAGGQTEMNSLRTSFDSLKQQTENVGSAHIQLALALREELRSLEEFRERQKEQRKKYEAIMDRVQKSKLSLYKKTMESKKAYDQKCRDADDAEQAFERVSANGHQKQVEKSQNKAKQCKESATEAERVYRQNIEQLERARTEWEQEHRTTCEAFQLQEFDRLTILRNALAVHCNQLSMQCVKDDELYEEVRLTLEGCDVEGDINGFIQSKSTGREPPAPVPYQNYYDREVTPLIGSPSIQPSCGVIKRFSGLLHGSPKTTPSAPAASTETLTPTPERNELVYASIEVQATQGNLNSSAQDYRALYDYTAQNSDELDISAGDILAVILEGEDGWWTVERNGQRGFVPGSYLEKLDYKDDDDK | –
